According to paper PMC5042579 (Molecular Biology of the Cell, 2016):

Key:
[1] = target: T1, tau (human 1N4R-tau isoform, 412 amino acids) (human, UniProt P10636-7 1-412); assay: pull-down
[2] = target: T1, tau (human 1N4R-tau isoform, 412 amino …); assay: TIRF microscopy of reconstituted dynamic microtubules
[3] = target: T1, tau (human 1N4R-tau isoform, 412 amino …); assay: other fluorescence titration

B1: biotinylated EB1 (mouse end-binding protein 1) (natural protein)
chain: MAVNVYSTSVTSDNLSRHDMLAWINESLQLNLTKIEQLCSGAAYCQFMDMLFPGSIALKKVKFQAKLEHEYIQNFKILQAGFKRMGVDKIIPVDKLVKGKFQDNFEFVQWFKKFFDANYDGKEYDPVAARQGQETAVAPSLVAPALSKPKKPLGSSTAAPQRPIATQRTTAAPKAGPGMVRKNPGVGNGDDEAAELMQQVKVLKLTVEDLEKERDFYFGKLRNIELICQENEGENDPVLQRIVDILYATDEGFVIPDEGGPQEEQEEY
modifications: biotin (EZ-Link NHS-Chromogenic Biotinylation Kit)
- binding result [1]: binds

B2: GFP-EB1-Δ-tail (GFP-EB1 lacking the last 20 amino acid residues) (domain or fragment)
chain: MAVNVYSTSVTSDNLSRHDMLAWINESLQLNLTKIEQLCSGAAYCQFMDMLFPGSIALKKVKFQAKLEHEYIQNFKILQAGFKRMGVDKIIPVDKLVKGKFQDNFEFVQWFKKFFDANYDGKDYDPVAARQGQETAVAPSLVAPALNKPKKPLTSSSAAPQRPISTQRTAAAPKAGPGVVRKNPGVGNGDDEAAELMQQVNVLKLTVEDLEKERDFYFGKLRNIELICQENEGENDPVLQRIVDILYA
- binding result [2]: binds

B3: EB1 (mouse end-binding protein 1), not labelled (natural protein)
chain: B1 chain
- Kd [3]: 1700 ± 1100 nM
